Tests used:
[1] = molecular target: Ran G19V (UniProt P62826 1-216); assay: co-expression and co-immunoprecipitation
From the text: (§1) To address more directly the relative binding in vivo of Nercc to Ran-GDP compared to Ran-GTP, the cytoplasmic wild type Nercc and a nuclear form of full length Nercc (NLS-Nercc) were each co-expressed with wild type Ran or Ran mutants that bind GDP (T24N) or GTP (G19V) exclusively; either Ran or Nercc was immunoprecipitated and probed for the association with the other polypeptide. The full-length wild type Nercc bound co-expressed wild type Ran and Ran T24N to a greater extent than RanG19V.

[2] = molecular target: Ran T24N (UniProt P62826 1-216); assay: co-expression and co-immunoprecipitation
From the text: as §1

[3] = molecular target: T1, HA Nercc (full-length Nercc1 with HA epitope tag) (human, UniProt Q8TD19 1-979); assay: anti-HA immunoprecipitation from co-transfected HEK293 cells, anti-FLAG blot
T1 construct: also called HA Nercc FL
T1 sequence: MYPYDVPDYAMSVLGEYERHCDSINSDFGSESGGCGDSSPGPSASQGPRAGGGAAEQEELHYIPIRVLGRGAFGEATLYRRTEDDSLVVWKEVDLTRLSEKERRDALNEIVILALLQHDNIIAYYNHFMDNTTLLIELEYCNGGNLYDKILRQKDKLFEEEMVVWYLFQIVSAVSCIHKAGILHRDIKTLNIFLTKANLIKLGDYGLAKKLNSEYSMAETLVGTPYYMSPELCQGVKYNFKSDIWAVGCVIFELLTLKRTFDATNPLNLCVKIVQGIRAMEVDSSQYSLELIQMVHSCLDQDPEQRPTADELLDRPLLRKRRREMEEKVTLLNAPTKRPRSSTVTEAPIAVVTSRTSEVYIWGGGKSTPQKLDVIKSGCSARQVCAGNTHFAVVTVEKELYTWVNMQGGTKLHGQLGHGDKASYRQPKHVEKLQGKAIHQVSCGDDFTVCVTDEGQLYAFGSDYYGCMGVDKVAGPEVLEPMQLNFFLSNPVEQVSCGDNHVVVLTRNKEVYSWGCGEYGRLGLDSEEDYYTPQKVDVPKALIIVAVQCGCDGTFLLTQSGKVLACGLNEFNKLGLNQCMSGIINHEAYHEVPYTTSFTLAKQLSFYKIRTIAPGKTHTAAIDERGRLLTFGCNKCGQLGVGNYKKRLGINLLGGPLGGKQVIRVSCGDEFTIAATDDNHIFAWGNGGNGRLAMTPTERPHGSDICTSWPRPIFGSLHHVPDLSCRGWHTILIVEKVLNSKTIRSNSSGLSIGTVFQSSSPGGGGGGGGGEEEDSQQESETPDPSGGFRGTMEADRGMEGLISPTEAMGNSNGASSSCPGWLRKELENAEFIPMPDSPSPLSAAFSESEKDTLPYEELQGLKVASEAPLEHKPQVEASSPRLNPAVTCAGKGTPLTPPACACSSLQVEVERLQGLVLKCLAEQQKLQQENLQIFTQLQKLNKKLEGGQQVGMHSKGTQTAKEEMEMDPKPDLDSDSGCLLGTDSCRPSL

B1: FLAG Nercc (338-739) (other)
chain: MDYKDDDDKPIAVVTSRTSEVYIWGGGKSTPQKLDVIKSGCSARQVCAGNTHFAVVTVEKELYTWVNMQGGTKLHGQLGHGDKASYRQPKHVEKLQGKAIHQVSCGDDFTVCVTDEGQLYAFGSDYYGCMGVDKVAGPEVLEPMQLNFFLSNPVEQVSCGDNHVVVLTRNKEVYSWGCGEYGRLGLDSEEDYYTPQKVDVPKALIIVAVQCGCDGTFLLTQSGKVLACGLNEFNKLGLNQCMSGIINHEAYHEVPYTTSFTLAKQLSFYKIRTIAPGKTHTAAIDERGRLLTFGCNKCGQLGVGNYKKRLGINLLGGPLGGKQVIRVSCGDEFTIAATDDNHIFAWGNGGNGRLAMTPTERPHGSDICTSWPRPIFGSLHHVPDLSCRGWHTILIVEKVLNSKTIRSNSSG
notes: also called Nercc RCC1 domain; Nercc RCC1-like domain
B1: no binding [1]; no binding [2].

B2: NLS Nercc FL (nuclear form of full length Nercc with an NLS peptide at the N-terminus) (enzyme)
chain: MSVLGEYERHCDSINSDFGSESGGCGDSSPGPSASQGPRAGGGAAEQEELHYIPIRVLGRGAFGEATLYRRTEDDSLVVWKEVDLTRLSEKERRDALNEIVILALLQHDNIIAYYNHFMDNTTLLIELEYCNGGNLYDKILRQKDKLFEEEMVVWYLFQIVSAVSCIHKAGILHRDIKTLNIFLTKANLIKLGDYGLAKKLNSEYSMAETLVGTPYYMSPELCQGVKYNFKSDIWAVGCVIFELLTLKRTFDATNPLNLCVKIVQGIRAMEVDSSQYSLELIQMVHSCLDQDPEQRPTADELLDRPLLRKRRREMEEKVTLLNAPTKRPRSSTVTEAPIAVVTSRTSEVYIWGGGKSTPQKLDVIKSGCSARQVCAGNTHFAVVTVEKELYTWVNMQGGTKLHGQLGHGDKASYRQPKHVEKLQGKAIHQVSCGDDFTVCVTDEGQLYAFGSDYYGCMGVDKVAGPEVLEPMQLNFFLSNPVEQVSCGDNHVVVLTRNKEVYSWGCGEYGRLGLDSEEDYYTPQKVDVPKALIIVAVQCGCDGTFLLTQSGKVLACGLNEFNKLGLNQCMSGIINHEAYHEVPYTTSFTLAKQLSFYKIRTIAPGKTHTAAIDERGRLLTFGCNKCGQLGVGNYKKRLGINLLGGPLGGKQVIRVSCGDEFTIAATDDNHIFAWGNGGNGRLAMTPTERPHGSDICTSWPRPIFGSLHHVPDLSCRGWHTILIVEKVLNSKTIRSNSSGLSIGTVFQSSSPGGGGGGGGGEEEDSQQESETPDPSGGFRGTMEADRGMEGLISPTEAMGNSNGASSSCPGWLRKELENAEFIPMPDSPSPLSAAFSESEKDTLPYEELQGLKVASEAPLEHKPQVEASSPRLNPAVTCAGKGTPLTPPACACSSLQVEVERLQGLVLKCLAEQQKLQQENLQIFTQLQKLNKKLEGGQQVGMHSKGTQTAKEEMEMDPKPDLDSDSGCLLGTDSCRPSL
notes: Probably FLAG-tagged like the other constructs; not shown: NLS peptide (a copy of the Nercc NLS)
B2: no binding [1].

B3: Nercc (338-739) fused to the Nercc NLS (other)
chain: PIAVVTSRTSEVYIWGGGKSTPQKLDVIKSGCSARQVCAGNTHFAVVTVEKELYTWVNMQGGTKLHGQLGHGDKASYRQPKHVEKLQGKAIHQVSCGDDFTVCVTDEGQLYAFGSDYYGCMGVDKVAGPEVLEPMQLNFFLSNPVEQVSCGDNHVVVLTRNKEVYSWGCGEYGRLGLDSEEDYYTPQKVDVPKALIIVAVQCGCDGTFLLTQSGKVLACGLNEFNKLGLNQCMSGIINHEAYHEVPYTTSFTLAKQLSFYKIRTIAPGKTHTAAIDERGRLLTFGCNKCGQLGVGNYKKRLGINLLGGPLGGKQVIRVSCGDEFTIAATDDNHIFAWGNGGNGRLAMTPTERPHGSDICTSWPRPIFGSLHHVPDLSCRGWHTILIVEKVLNSKTIRSNSSG
notes: also called Nercc RCC1 domain directed to the nucleus; not shown: Nercc NLS
B3: no binding [1]; no binding [2].

B4: FLAG Nercc (full-length wild type Nercc1 kinase with FLAG epitope tag) (enzyme)
chain: MDYKDDDDKMSVLGEYERHCDSINSDFGSESGGCGDSSPGPSASQGPRAGGGAAEQEELHYIPIRVLGRGAFGEATLYRRTEDDSLVVWKEVDLTRLSEKERRDALNEIVILALLQHDNIIAYYNHFMDNTTLLIELEYCNGGNLYDKILRQKDKLFEEEMVVWYLFQIVSAVSCIHKAGILHRDIKTLNIFLTKANLIKLGDYGLAKKLNSEYSMAETLVGTPYYMSPELCQGVKYNFKSDIWAVGCVIFELLTLKRTFDATNPLNLCVKIVQGIRAMEVDSSQYSLELIQMVHSCLDQDPEQRPTADELLDRPLLRKRRREMEEKVTLLNAPTKRPRSSTVTEAPIAVVTSRTSEVYIWGGGKSTPQKLDVIKSGCSARQVCAGNTHFAVVTVEKELYTWVNMQGGTKLHGQLGHGDKASYRQPKHVEKLQGKAIHQVSCGDDFTVCVTDEGQLYAFGSDYYGCMGVDKVAGPEVLEPMQLNFFLSNPVEQVSCGDNHVVVLTRNKEVYSWGCGEYGRLGLDSEEDYYTPQKVDVPKALIIVAVQCGCDGTFLLTQSGKVLACGLNEFNKLGLNQCMSGIINHEAYHEVPYTTSFTLAKQLSFYKIRTIAPGKTHTAAIDERGRLLTFGCNKCGQLGVGNYKKRLGINLLGGPLGGKQVIRVSCGDEFTIAATDDNHIFAWGNGGNGRLAMTPTERPHGSDICTSWPRPIFGSLHHVPDLSCRGWHTILIVEKVLNSKTIRSNSSGLSIGTVFQSSSPGGGGGGGGGEEEDSQQESETPDPSGGFRGTMEADRGMEGLISPTEAMGNSNGASSSCPGWLRKELENAEFIPMPDSPSPLSAAFSESEKDTLPYEELQGLKVASEAPLEHKPQVEASSPRLNPAVTCAGKGTPLTPPACACSSLQVEVERLQGLVLKCLAEQQKLQQENLQIFTQLQKLNKKLEGGQQVGMHSKGTQTAKEEMEMDPKPDLDSDSGCLLGTDSCRPSL
notes: Expressed in HEK293 cells; also called FLAG Nercc1; FLAG Nercc full length (FL)
B4: binds [3].

B5: FLAG Nercc (1-891) (enzyme)
chain: MDYKDDDDKMSVLGEYERHCDSINSDFGSESGGCGDSSPGPSASQGPRAGGGAAEQEELHYIPIRVLGRGAFGEATLYRRTEDDSLVVWKEVDLTRLSEKERRDALNEIVILALLQHDNIIAYYNHFMDNTTLLIELEYCNGGNLYDKILRQKDKLFEEEMVVWYLFQIVSAVSCIHKAGILHRDIKTLNIFLTKANLIKLGDYGLAKKLNSEYSMAETLVGTPYYMSPELCQGVKYNFKSDIWAVGCVIFELLTLKRTFDATNPLNLCVKIVQGIRAMEVDSSQYSLELIQMVHSCLDQDPEQRPTADELLDRPLLRKRRREMEEKVTLLNAPTKRPRSSTVTEAPIAVVTSRTSEVYIWGGGKSTPQKLDVIKSGCSARQVCAGNTHFAVVTVEKELYTWVNMQGGTKLHGQLGHGDKASYRQPKHVEKLQGKAIHQVSCGDDFTVCVTDEGQLYAFGSDYYGCMGVDKVAGPEVLEPMQLNFFLSNPVEQVSCGDNHVVVLTRNKEVYSWGCGEYGRLGLDSEEDYYTPQKVDVPKALIIVAVQCGCDGTFLLTQSGKVLACGLNEFNKLGLNQCMSGIINHEAYHEVPYTTSFTLAKQLSFYKIRTIAPGKTHTAAIDERGRLLTFGCNKCGQLGVGNYKKRLGINLLGGPLGGKQVIRVSCGDEFTIAATDDNHIFAWGNGGNGRLAMTPTERPHGSDICTSWPRPIFGSLHHVPDLSCRGWHTILIVEKVLNSKTIRSNSSGLSIGTVFQSSSPGGGGGGGGGEEEDSQQESETPDPSGGFRGTMEADRGMEGLISPTEAMGNSNGASSSCPGWLRKELENAEFIPMPDSPSPLSAAFSESEKDTLPYEELQGLKVASEAPLEHKPQVEASSPRLNPAVTCAGKGTPLTPPACA
B5: no binding [3].
